Data: patent publication US9623039B2, “Treatment and prevention of pathological conditions using iduna related techniques and compositions” (VALTED, LLC, priority 2010, dated 2017)

How the values were obtained:
[1] = tested on: PAR polymer; experiment: PAR polymer overlay / dot blot (far western); format: binding; settings: PAR polymer overlay assay
Excerpt: PAR binding is specified by a sequence of approximately 20 amino acids containing N-terminal basic amino acids and a C-terminal region containing alternating hydrophobic and basic amino acids (FIG. 24). Iduna contains a predicted PAR polymer binding sequence within amino acids 144-167 of the WWE domain (FIGS. 1 and 24). The PAR-binding domain was defined by comparing to the consensus sequence for PAR-binding and the known PAR binding domain of Histone 3 (FIG. 24). HEK293 cells were transfected with GFP, GFP-Iduna lacking the WWE domain (GFP-IdunaΔWWE), GFP-Iduna lacking the RF domain (GFP-IdunaARF), and full-length GFP-Iduna, followed by immunoprecipitation with a GFP antibody. […] Only GFP-Iduna-ARF and full-length GFP-Iduna can co-immunoprecipiate PAR binding proteins (FIG. 25). The critical amino acids in the PAR binding domain, 156Y and 157R, were mutated to 156A and 157A in full length Iduna (Iduna-YRAA). […] Similar results are obtained with a biotin-tagged PAR polymer followed by detection with an anti-biotin antibody (FIG. 26). […] Histone H3 is a known PAR binding protein and was used as a positive control for the PAR overlay assay. […] An assay based on electrophorectic mobility shift (EMSA) for PAR binding was developed to monitor PAR polymer binding to Iduna. […]

[2] = tested on: PARsylated PARP1; experiment: PARG activity on PARsylated PARP1; format: biochemical
Description: FIG. 85—PARG activity was measured by incubation with PARsylated PARP1 as indicated. The level of PARsylated PARP1 (Rb-PARP1) was monitored by immunoblot with anti-PAR antibody. There is a slight difference in the sensitivity of assays used to detect PAR, which accounts for the ability of 1 unit of PARG to eliminate PAR in B, but 1.2 units of PARG is required in A.
As disclosed herein, Iduna contains a consensus PBM is its WWE domain and that mutating the hydrophobic amino acids 155Y and 156R to alanine to create an Iduna YRAA mutant disrupts PAR binding to Iduna. MCF7 cells were transfected with GFP-Iduna, GFP-Iduna C60A and GFP-Iduna YRAA. 48 hours later Iduna was immunoprecipitated with antibodies to GFP followed by immunoblot analysis with antibodies to PAR. Iduna and Iduna C60A bind PAR whereas Iduna YRAA is incapable of binding PAR (FIG. 83). To confirm that Iduna binding to PARP1 is dependent on PARsylation of PARP1, binding of automodified PARP1 with ^32P-NAD was monitored in a GST pull down experiment with Histone H3 as a positive control (FIGS. 84 and 85). […] Iduna and Iduna-C60A bind to a range of PAR polymers of varying length similar to H3, whereas Iduna-YRAA fails to bind to PAR, as determined by phosphorimager detection of radiolabeled PAR polymer bound to Iduna, Iduna-C60A and H3 after separation by Tris-borate-EDTA PAGE (FIG. 87).

[3] = tested on: MCF7 cells; experiment: Alkaline comet assay after γ-irradiation; format: cell-based, human; settings: γ-irradiation 2 Gy, 15 min
Description: Comet assay. Single cell gel electrophoresis assay was performed by following the manufacturer's instructions. Briefly, established stable cell lines were irradiated (2 Gy) with a Gammacell irradiator and then further incubated for 15 min at 37° C. Cells were collected at 500×g at 4° C. and rinsed twice with ice cold PBS (Ca++ and Mg++ free). A total of 5×10^5 cells were counted and resuspended into PBS (Ca++ and Mg++ free) and then combined with LMAgarose (low melting agarose) at a ratio 1:10 (v/v). Each sample was spotted into CometSlide™ and lysed with buffer (supplied with CometAssay Kit, Trevigen) for 1 h at 4° C. After draining the excess lysis buffer, slides were immersed with alkaline unwinding solution (200 mM NaOH, pH>13, 1 mM EDTA) for 1 h at RT. To the single cell electrophoresis, each comet slide was placed in electrophoresis slide tray with 1 L of alkaline unwinding solution and applied to 21 Volts for 30 min for electrophoresis. After draining the excess electrophoresis buffer, slides were rinsed twice with dH2O and then fixed with 70% ethanol for 5 min. To facilitate single cell observation, slides were dried at 40° C. and stained with SYBR Green I (supplied with CometAssay Kit) for 5 min at 4° C. […] Fifty cells per slide were monitored and the DNA damage was calculated using comet tail length and head diameter parameters.

[4] = tested on: MCF7 cells; experiment: Determination of apurinic/apyrimidinic (AP) sites; format: cell-based, human; settings: 1 h
Description: Determination of apurinic/apyrimidinic (AP) sites. The amount of AP sites in genomic DNA was monitored by a DNA damage quantification kit (BioVision). Briefly, cells were treated with either DMSO or 500 μM MNNG for 15 min, and then replaced with normal growth media. After 1 h, cells were scraped and harvested at 500×g for 5 min and washed once with PBS. Genomic DNA was isolated using a Biovision Genomic DNA Isolation Kit (BioVision) and then AP sites on the 0.5 μg of genomic DNA was labeled with biotin by the Aldehyde Reactive Probe (ARP) reagent (supplied with the DNA damage quantification kit) for 1 h at 37° C. To precipitate the biotin-tagged DNA, sample was mixed with TE buffer containing 2% glycogen and then sequentially incubated with ice cold 70% ethanol for 30 min at −20° C. […] To determine of the number of AP sites in DNA, samples were dissolved in TE buffer and then transferred into 96 well plate with DNA binding buffer (supplied with the DNA damage quantification kit). After 12 h, samples were washed five times with DNA washing buffer (supplied with the DNA damage quantification kit) and then biotin labeled AP sites were quantified using an avidin-biotin assay. Each sample and standards (supplied with a DNA damage quantification kit) were run in triplicate and the OD was measured at 650 nm using a 96-well plate reader (SpectraMax Plus384 Microplate Reader).

[5] = tested on: MCF7 cells; experiment: Cell cycle analysis after γ-irradiation; format: cell-based, human; settings: γ-irradiation 2 Gy
Description: Cell cycle analysis. Studies were performed to evaluate the cell cycle response of each stable cell lines. Cells were plated onto 150 mm culture dishes and cultured for 24 h at 37° C. with fresh growth medium. Following replacement of growth medium, cells were irradiated at 2 Gy with a Gammacell irradiator. After 12 h, cells were washed once with PBS and incubated with PBS containing 0.2% EDTA for 5 min at 37° C., thereafter scraped with fresh growth medium and collected at 500×g at 4° C. Collected cells were washed once with ice cold PBS and then fixed with 70% ethanol. Cells were washed once with PBS containing 1% FBS and resuspended into propidium iodide (PI) staining buffer (PBS, pH 7.4, 50 μg/ml PI, 1% FBS, 100 μg/ml RNase) for 30 min at 37° C. Cells were monitored for DNA content by a flow cytometry (BD Biosciences) and then data were analyzed with FlowJo using Dean-Jett-Fox model for the quantification of each cell cycle phase.

[6] = tested on: MCF7 cells; experiment: MNNG cell death assay in stable MCF7 cell lines; format: cell-based, human; settings: MNNG 500 μM 15 min, 24 hr
Description: Cell death assay. GFP, GFP-Iduna, GFP-Iduna C60A, GFP-Iduna YRAA, shRNA-Iduna and shRNA-Iduna/GFP-Iduna stably transfected cells were treated with 500 μM MNNG for 15 min, and replaced with fresh growth media. After 24 h, the cells were stained with […] Hoechst 33342 (Invitrogen) and […] propidium iodide (PI) (Invitrogen) and counted by automated computer-assisted program (Carl Zeiss). The percentage of cell death was determined as the ratio of live to dead cells compared with the percentage of cell death in control.

B1: GST-Iduna: full length recombinant GST-Iduna fusion protein (protein)
chain: MEMAGCGEIDHSINMLPTNKKANESCSNTAPSLTVPECAICLQTCVHPVSLPCKHVFCYLCVKGASWLGKRCALCRQEIPEDFLDKPTLLSPEELKAASRGNGEYAWYYEGRNGWWQYDERTSRELEDAFSKGKKNTEMLIAGFLYVADLENMVQYRRNEHGRRRKIKRDIIDIPKKGVAGLRLDCDTNTVNLARESSADGADSGSAQTGASVQLAVPSSTRPLTSVDGQLTSPVTPSPDAGISLEDSFAHLQLSGDSIAERSHRGEGEEDHESPSSGRVPDTSVEETESDASSDSEDAPVVVAQHSLTQQRPLVPNGNQTVADQSDRSGTDRSVAGGGTMSVNVRSRRPDGQCTVIEV
modifications: left off: a dimerising Fc or GST
notes: full length recombinant GST-Iduna fusion protein
PAR polymer binding [1]: binds to PAR polymer

B2: PARG: PAR glycohydrolase, which degrades PAR (protein, UniProt Q86W56 1-976, looked up)
Poly(ADP-ribose) …: MNAGPGCEPCTKRPRWGAATTSPAASDARSFPSRQRRVLDPKDAHVQFRVPPSSPACVPGRAGQHRGSATSLVFKQKTITSWMDTKGIKTAESESLDSKENNNTRIESMMSSVQKDNFYQHNVEKLENVSQLSLDKSPTEKSTQYLNQHQTAAMCKWQNEGKHTEQLLESEPQTVTLVPEQFSNANIDRSPQNDDHSDTDSEENRDNQQFLTTVKLANAKQTTEDEQAREAKSHQKCSKSCDPGEDCASCQQDEIDVVPESPLSDVGSEDVGTGPKNDNKLTRQESCLGNSPPFEKESEPESPMDVDNSKNSCQDSEADEETSPGFDEQEDGSSSQTANKPSRFQARDADIEFRKRYSTKGGEVRLHFQFEGGESRTGMNDLNAKLPGNISSLNVECRNSKQHGKKDSKITDHFMRLPKAEDRRKEQWETKHQRTERKIPKYVPPHLSPDKKWLGTPIEEMRRMPRCGIRLPLLRPSANHTVTIRVDLLRAGEVPKPFPTHYKDLWDNKHVKMPCSEQNLYPVEDENGERTAGSRWELIQTALLNKFTRPQNLKDAILKYNVAYSKKWDFTALIDFWDKVLEEAEAQHLYQSILPDMVKIALCLPNICTQPIPLLKQKMNHSITMSQEQIASLLANAFFCTFPRRNAKMKSEYSSYPDINFNRLFEGRSSRKPEKLKTLFCYFRRVTEKKPTGLVTFTRQSLEDFPEWERCEKPLTRLHVTYEGTIEENGQGMLQVDFANRFVGGGVTSAGLVQEEIRFLINPELIISRLFTEVLDHNECLIITGTEQYSEYTGYAETYRWSRSHEDGSERDDWQRRCTEIVAIDALHFRRYLDQFVPEKMRRELNKAYCGFLRPGVSSENLSAVATGNWGCGAFGGDARLKALIQILAAAAAERDVVYFTFGDSELMRDIYSMHIFLTERKLTVGDVYKLLLRYYNEECRNCSTPGPDIKLYPFIYHAVESCAETADHSGQRTGT
removal of PAR from PARsylated PARP1 [2]: dose dependently removes PAR from PARsylated PARP1

B3: Iduna C60A: Iduna RING finger point mutant lacking E3 ligase activity (protein, UniProt Q9NTX7 1-359, looked up, variant C60A)
E3 ubiquitin-protein ligase …: MMAGCGEIDHSINMLPTNRKANESCSNTAPSLTVPECAICLQTCVHPVSLPCKHVFCYLAVKGASWLGKRCALCRQEIPEDFLDKPTLLSPEELKAASRGNGEYAWYYEGRNGWWQYDERTSRELEDAFSKGKKNTEMLIAGFLYVADLENMVQYRRNEHGRRRKIKRDIIDIPKKGVAGLRLDCDANTVNLARESSADGADSVSAQSGASVQPLVSSVRPLTSVDGQLTSPATPSPDASTSLEDSFAHLQLSGDNTAERSHRGEGEEDHESPSSGRVPAPDTSIEETESDASSDSEDVSAVVAQHSLTQQRLLVSNANQTVPDRSDRSGTDRSVAGGGTVSVSVRSRRPDGQCTVTEV
modifications: GFP tag
comet head diameter and tail length [3]: does not prevent the reduction in head diameter and increase in tail length | increase in AP sites after MNNG [4]: fails to reduce the number of AP sites | cell cycle arrest and cell survival [5]: not protective | MNNG-induced cell death [6]: not protective
